Laboratory results from the nanobody polyreactivity screen of Harvey et al. (2022).

Assay: yeast display, Sf9 membrane polyspecificity reagent, FACS + sequencing; frameworks hold sequencing errors
How it was run: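 After 36–48 hours of galactose induction, yeast (Saccharomyces cerevisiae BJ5465) displaying a synthetic nanobody library were stained at 4 °C for 1 hour with 10% biotinylated, detergent-solubilized Sf9 membrane reagent. Streptavidin microbeads enriched the stained cells before FACS sorting into low and high (top ~1%) gates on anti-HA and streptavidin fluorescence. Each clone's polyreactivity label reflects its gate of origin.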

Row | Sequence | polyreactivity (PSR sort gate)
1 | QVQLVESGGGLVQAGGSLRLSCAASGRIFHIYAMGWYRPAPGKERELVAAIRSSGGSTYYADSVKGRFTISRDNAMNTVYLQMNSLKPEDTAVYYCNKYVAYDYWGQGTQVTVSS | low polyreactivity
2 | QVQLVESGGGLVQAGGSLRLSCAASGSTFAFNAMGWYRQAPGKEREFVARITWTYGSTYYADSVKGRFTISRDNAKNTVYLQMNSLKPEDTAVYYCARDPTEQAIARWTYDYWGQGTQVTVSS | low polyreactivity
3 | QFQLVESGGGLVQAGGSLRLSCAASGSTFVYYAMGWYRQAPGKERELVAAITASGGGTYYADSVKGRFTISRDNAKNTVYLQMNSLKPEDTAVYYCAAYLGWGYDYWGQGTQVTVSS | low polyreactivity
4 | QVQLVESGGGLVQAGGSLRLSCAASGRIFRYNAMGWYRPAPGKERELVAAIRFSGGSTYYADSVKGRFTISRDHAKNTVYLQMNSLKPEDTAVYDCAKVYFRVQSGMDYWGQGTQVTVSS | low polyreactivity
5 | QVQLVESGGGLVQAGGSLRLSCAASGFTIAYYAMGWYRQAPGKERELVAAITTSGSTYYADSVKGRFTISRDNAQNTVYLQMNSLKPEDTAVYYCAVSIWGWFASGFDYWGQGTQVTVSS | high polyreactivity
6 | QVQLVESGGGLVQAGGSLRLSCAASGRTFEWNAMGWYRQAPGKERELVAAITKRGGITYYADSVKGRFTISRDNAKNTVYLQMNSLKPEDTAVYYCAKRIVFYGRYDYWGQGTQVTVSS | high polyreactivity
7 | QVQLVESGGGLVQAGGSLRLSCAASGSIFDANAMGCYRQAPGKERELVAAINWTGGSTYYADSVKGRFTISRDNAKNTVYLQMNSLKPEDTAVYYCAAEWWYPYNPDIYYYWGQGIQVTVSS | high polyreactivity
8 | QVQLVESGGGLVQAGGSLRLSCAASGITFGNYAMGWYRQAPGKEREFVAAISQSYGRTYYADSVKGRFTISRDNAKNTVYLQMNSLKPEDTAVYYCAARTRGSSRGDYDYWGQGTQVTVSS | high polyreactivity
9 | QVQLVESGGGLVQAGGSLRLSCAASGITISVNDMGWYRQAPGKERELVAAISSGDSTNYADSVKGRFTISRDNAKNTVYLQMNSLKPEDTAVSYCAALEGSLTGWQTYDYWGQGTQVTVSS | low polyreactivity
10 | QVQLVESGGGLVQAGGSLRLSCAASGFIFGYNAMGWYRKAPGTERELVAAITWIGGTTYYADSVKGRFTISRDNAKNTVYLQMNSLKPEDTAVYYCARQRSYGRSSYSYGYDYWGQGTQVTVSS | high polyreactivity
11 | QVKLVESGGGLVQAGGSLRLSCGASVGTFYRYSMVWFRQAPGKERELVAVISKRGGTTYYADSVKRRFTISRDNANNTVNLQMNSLKPEDTAVYYCADRPYYWGQGTQVTVSS | high polyreactivity
12 | QVQLVESGGRLVQAGGSLRLSCAASGFTFVEYAMGWYRQAPGKERELVAANSRSGSTYYADSVKGRFTISRDNSKNTVYLQMNSLKPEDTAVYYCATLVYRKQYSRYDYWGQGTQVTVSS | high polyreactivity
13 | QVQLVESGGGLVQAGGSLRLSCAASGRIFGVYAMGWYRQAPGKERELVAAISGSTTLTYYADSVKGRFTISRDTAKNTVDLQMNSLKPEDTAVYYCAARSYTPSYKMDYWGQGTKVTVSS | high polyreactivity
14 | QVQLVESGRGLVQAGGRLRLSCAASGSTFDGYAMGLYRQAPGKERELVAAITVSVGSTYYADSVKGRFTISRDNAKNTVYLQMNSLKPEDTAVYYCAADYDYQYRYYYWGQGTKVTVSS | low polyreactivity
15 | QVQLVESGGGLVQAGGSLRLSCAASGRIFVINAMGWYRQAPGKERELVAAISRRGANTYYADSVKGRFTISRDNAKNTVYLQMNSLKPEDTAVYYCNKVTVYRFRGDSWGQGTQVTVSS | high polyreactivity
16 | QVQLVESGGGLVQAGGSLRLSCAASGRTFRLYAMGWYRQAPGKERELVATITSSGGSTYYADSVKGRFTISRDKAKNTVYLQMNSLKPEDTAVYYCAAQTYYSYDYWGQGTQVTVSS | low polyreactivity

Row | Sequence | polyreactivity (PSR sort gate)
17 | QDQLVESGAGLVQAGGSLRLSCAASGSTFGIYAMGWSRQAPGKEREFVAAISRSGSSTYYADSVKGRFTISRDNAKNTVYLQMNSLKPEDTAVYYCAAVVRYSQAGYYYWGQGTHVTVSS | high polyreactivity
18 | QVQLVESGGGLVQAGGSLRLSCAASGNIFTIYAMGWYRQAPGKERELVAAIDSDGTTYYADSVKGRFTISRYNAKNTVYLQMNSLKPEDTAVYYCAAGGRSVRYNYWGQGTQVTVSS | high polyreactivity
19 | QVQLVESGGGLVQAGGSLRLSCAASGSTFGVNAMGWYRPAPGKERELVAAITYSGGSTYYADSVKGRFTISRDNAKNTVYLQMNSLKPEDTAVYYCATTWYFVASWYVAIYDYWGQGTQVTVSS | low polyreactivity
20 | QVQLVESGGGLVQAGGILRLSCAASGRTLDYSAMGWYRQAPGKERELVASITSGGSTNYADSVKGRFTISRDTAKNTVYLQMNSLKPEDTEVYYCAADSAFYRDVKSNYWGQGTQVTVSS | low polyreactivity
21 | QDQLVESGGGLVQAGGSLRLICSASGIILGSNAMGWYRQAPGKERELVAAITSSGSTYYADSVKGRFTISRDNAKNTVYIQMNSLKPEDTAVYYCATGWLRRAVRFNYWGQGTQVTLSS | high polyreactivity
22 | QVQLVESGGGLVQAGGSLRLSCAASGFSSVRNDMGWYRQAPGKERELVAAISSGDTKDYADSVKGRFTISRDNAKNTVYLQMNSLNPEDTSVYYCAAVYYGRYYYWGQGTQVTVSS | low polyreactivity
23 | QVHLVESGGGLVQAGGSLRLTCAASGSTFVPYAMGWYRQAPGKERELVAAISTSSGGTYYADSVKGRFTISRDNEKNTVYLQMNSLKPEDTAVYYCAAELVYVPHWLIYDYWGQGTQVTVSS | high polyreactivity
24 | QVQLVESGGGLVQAGGSLRLSCAASGFTFYVNVMGWYRQPPGKEREFVAAIRTRGASTYYADSVKGRFTISRDNAKNTVYLQMNSLKPEDTADYYCAAGWFWNYWYGVSMDYWGQGTQVTVSS | high polyreactivity
25 | QVQLVESGGGLVQAGGSLRLSCAASGFTFKENTIGRYRQAPGKEMELVAAMSWSGGGTYYADSVKGRFTISRDNGKNTVYLQMNSLKPEDTAVYYCAALQRRDHNGDYWGQGTQVTVSS | low polyreactivity
26 | QVQLVESGGGLVQAGGSLRLSCAASGRMFGPYTMGWYRQAPGKEREFVAAITRRGGSTYYADSVKGRFTFSRDNAKNTVYLQMNSLKPEDTAVYYCAAVGQNRSLGYSWGQGTQVTVSS | low polyreactivity
27 | QVQLVESGGGLVQAGGSLRLSCAASGGTFDVYTMGWYRQAPGKERELVAAIDNGGSTNYADSVKGRFTISRDNAKNTVYLQMNSLKPEDTAVYYCAADEVYLFWGIAEFIYDYWGQGTQVTVSS | low polyreactivity
28 | QVQLVESGGGLVQAGGSLRLSCAASGSIFSPYAMGWYRQAPGKERELVAAISDRGGSTYYADSVKVRFTISRDNAKNTVYLQMNSLKPEDTAVYYCAARVGYAFRYYYWGQGTQVTVSS | high polyreactivity
29 | QVQLVESGGGLVQAGGSLRLSCAASGRIFPWNDMGWYRQAPGKERELVAAITYRGGRTYYADSVKGRFTISRDNAKNTVYLQMNSLKPEDTAVYYCAKTRYFSVGPHWDYYYWGQGTQVTVSS | high polyreactivity
30 | QVQLVESGGGLVQAGGSLRLSCAASGFTYRTNAMGWYRQAPGKERELVAAISTGARTYYADSVKGRFTISRDNAKNTVYLQMNSLKPEDTAVYYCNKVLRRFLSRYDYWGQGTQVTVSS | high polyreactivity
31 | QVQLVESGGGLVQAGGSLRLSCAASGSTFVVNAMGCYRQAPGKERELVAAITQSGGSTFYADSVKGRFTISRDNAKNTVYLQMNSLKPEDTAVYYWGQGTQVTVSS | low polyreactivity
32 | QVQLVESGGGLVQAGGSLRLSCAASGSIIYRYAMGWYRQAPGKEMELVAAISTAGSTNYADSVKGRFTISRDNAKNTVYLLMNCLKPEDTAVYYCAAKSYRGRTQRSYGYWGQGTQVSVSS | low polyreactivity
